We go through one molecule from article PMC10200060, “Inhibition of DAMP actions in the tumoral microenvironment using lactoferrin-glycyrrhizin conjugate for glioblastoma therapy” (Biomaterials Research, 2023).

One assay relates to CD31. In words: Immunofluorescence staining of CD31 in GBM tissue. Format: in vivo, Balb/c nude mice. To be noted: GBM mice, daily i.v., 14 days (control MFI 14.7 ± 1.4). The text has this: After two weeks, mice were sacrificed, and the brains were harvested and fixed with paraformaldehyde (4%). Then, tissue processing was automatically conducted using a Leica TP1020 semi-enclosed Benchtop Tissue Processor (Leica Biosystems, Wetzlar, Hesse, Germany), followed by embedding in paraffin blocks. Paraffin blocks were sliced into 5 μm thick slices using a Leica RM2145 Microtome (Leica Biosystems). Nissl staining was used to stain brain tissue slides with pre-warmed 0.1% Cresyl Violet Stain Solution (Abcam). TUNEL assays were conducted following the manufacturer’s instructions. For immunofluorescence staining; anti-HMGB1 antibody (Abcam), anti-Ki67 antibody (Abcam), anti-CD31 antibody (Abcam), and anti-VEGF antibody (Abcam) were used as primary antibodies, and goat anti-rabbit IgG-H&L Alexa Fluor 488 and goat anti-rabbit IgG H&L Alexa Fluor 647 were used as secondary antibodies, followed by DAPI mounting.

A further assay relates to U87MG spheroid. In words: GBM spheroid growth inhibition. Format: cell-based, human. The note with it: GL equivalent 50 µM, day 6 (control 294%). The method, then: Fig. S8. GBM spheroid growth inhibition of Lf-GL. To form U87MG spheroid, cells were seeded at density of 1X10^5 cells in concave mold (StemFIT 3D; MICROFIT, Korea). After spheroids were formed, they were transferred to 24-well plate coated with 2% agarose gel. The constructed spheroids were treated with conditioned medium at 2 days interval after a washing step with PBS. (a) Morphology of U87MG spheroid treated with Lf-GL of GL equivalent concentration of 50 µM on day 0, 2, 4 and 6, respectively. Scale bar: 200 µm (b) GBM spheroids time-related volume after treated with Lf-GL of GL equivalent concentration of 50 µM. Data were expressed as mean ± S.E.M (n=9). **P <0.01 versus Control.

B1: Lf-GL: lactoferrin-glycyrrhizin conjugate with ligation ratio Lf:GL 1:10, used in further experiments (conjugate, UniProt P24627 20-708, looked up)
Lactotransferrin: APRKNVRWCTISQPEWFKCRRWQWRMKKLGAPSITCVRRAFALECIRAIAEKKADAVTLDGGMVFEAGRDPYKLRPVAAEIYGTKESPQTHYYAVAVVKKGSNFQLDQLQGRKSCHTGLGRSAGWIIPMGILRPYLSWTESLEPLQGAVAKFFSASCVPCIDRQAYPNLCQLCKGEGENQCACSSREPYFGYSGAFKCLQDGAGDVAFVKETTVFENLPEKADRDQYELLCLNNSRAPVDAFKECHLAQVPSHAVVARSVDGKEDLIWKLLSKAQEKFGKNKSRSFQLFGSPPGQRDLLFKDSALGFLRIPSKVDSALYLGSRYLTTLKNLRETAEEVKARYTRVVWCAVGPEEQKKCQQWSQQSGQNVTCATASTTDDCIVLVLKGEADALNLDGGYIYTAGKCGLVPVLAENRKSSKHSSLDCVLRPTEGYLAVAVVKKANEGLTWNSLKDKKSCHTAVDRTAGWNIPMGLIVNQTGSCAFDEFFSQSCAPGADPKSRLCALCAGDDQGLDKCVPNSKEKYYGYTGAFRCLAEDVGDVAFVKNDTVWENTNGESTADWAKNLNREDFRLLCLDGTRKPVTEAQSCHLAVAPNHAVVSRSDRAAHVKQVLLHQQALFGKNGKNCPDKFCLFKSETKNLLFNDNTECLAKLGGRPTYEEYLGTEYVTAIANLKKCSTSPLLEACAFLTR
modifications: glycyrrhizin conjugate
With B1, the “Decrease of MFI of CD31” value in the assay with CD31 is recorded as “sevenfold”. In addition, in the assay with U87MG spheroid, the “Spheroid volume increase at day 6 compared to day 0” value turned out to be 156%.
